The text below walks through data of PMC7380489.

This assay has as its target human TRIM28 N-terminal RBCC domain (human). The assay can be described thus: SEC-MALS + other: SEC-SAXS + AUC. (In general: In gel filtration, larger molecules generally elute earlier.)

In the case of “human TRIM28 N-terminal RBCC domain (domain or fragment)”, the stoichiometry N (commonly the number of molecules, sites or subunits per partner or assembly) amounted to 3.
